Measured values reported in patent US20190382477A1 (COMPUGEN, published 2019).

T1: PVRIG on human CMV pp65-specific CD8+ T cells (human, UniProt Q6DKI7 41-326)
T1 sequence (looked up): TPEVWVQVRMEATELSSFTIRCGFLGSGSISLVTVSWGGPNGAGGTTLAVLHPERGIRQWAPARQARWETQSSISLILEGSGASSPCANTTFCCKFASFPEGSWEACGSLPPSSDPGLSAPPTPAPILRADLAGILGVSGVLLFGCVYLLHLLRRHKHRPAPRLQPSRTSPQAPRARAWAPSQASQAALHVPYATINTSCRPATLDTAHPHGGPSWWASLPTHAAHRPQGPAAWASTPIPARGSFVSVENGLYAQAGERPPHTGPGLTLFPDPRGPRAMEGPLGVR

T2: TIGIT on human CMV pp65-specific CD8+ T cells (human, UniProt Q495A1 22-244)
T2 sequence (looked up): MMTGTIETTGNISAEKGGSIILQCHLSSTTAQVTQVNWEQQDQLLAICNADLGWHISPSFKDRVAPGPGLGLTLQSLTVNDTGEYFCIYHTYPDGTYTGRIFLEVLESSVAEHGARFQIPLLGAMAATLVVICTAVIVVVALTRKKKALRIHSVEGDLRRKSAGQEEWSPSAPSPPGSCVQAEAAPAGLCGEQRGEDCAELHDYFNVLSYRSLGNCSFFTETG

T3: Human TIGIT-HIS monomer (Sino Biological) (human, UniProt Q495A1 22-141)
T3 construct: Bought protein; also called TIGIT-His (Sino Biological cat #10917-H08H); biotinylated TIGIT-His; not shown: His tag
T3 sequence (looked up): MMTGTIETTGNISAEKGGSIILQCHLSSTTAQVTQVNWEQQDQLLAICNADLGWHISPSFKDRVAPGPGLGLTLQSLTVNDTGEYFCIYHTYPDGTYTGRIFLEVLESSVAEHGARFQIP

T4: Human PVRIG-HIS (prepared in-house) (human, UniProt Q6DKI7 41-171, limits assumed)
T4 construct: In-house protein; also called PVRIG-His (Compugen, lot 20170623); biotinylated PVRIG-His; not shown: His tag
T4 sequence (looked up): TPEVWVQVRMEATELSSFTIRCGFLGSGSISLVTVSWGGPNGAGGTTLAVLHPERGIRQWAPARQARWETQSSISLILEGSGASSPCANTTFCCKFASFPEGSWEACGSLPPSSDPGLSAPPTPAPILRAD

B1: CHA.7.518.1.H4(S241P)/CPA.9.086 bispecific antibody (bispecific antibody, human IgG4 S228P, kappa, lambda)
heavy 1: QVQLVQSGAEVKKPGASVKVSCKASGYTFTDYNINWVRQAPGQGLEWMGYIYPYIGGSGYAQKFQGRVTMTRDTSTSTVYMELSSLRSEDTAVYYCAREDKTARNAMDYWGQGTLVTVSSASTKGPSVFPLAPCSRSTSESTAALGCLVKDYFPEPVTVSWNSGALTSGVHTFPAVLQSSGLYSLSSVVTVPSSSLGTKTYTCNVDHKPSNTKVDKRVESKYGPPCPPCPAPEFLGGPSVFLFPPKPKDTLMISRTPEVTCVVVDVSQEDPEVQFNWYVDGVEVHNAKTKPREEQFNSTYRVVSVLTVLHQDWLNGKEYKCKVSNKGLPSSIEKTISKAKGQPREPQVYTLPPCQDELTKNQVSLWCLVKGFYPSDIAVEWESNGQPENNYKTTPPVLDSDGSFFLYSRLTVDKSRWQEGNVFSCSVMHEALHNHYTQKSLSLSPGK
light 1: DIQMTQSPSSLSASVGDRVTITCRVSENIYSNLAWYQQKPGKAPKLLIYEATNLAEGVPSRFSGSGSGTDFTLTISSLQPEDFATYYCQHFWGTPYTFGQGTKLEIKRTVAAPSVFIFPPSDEQLKSGTASVVCLLNNFYPREAKVQWKVDNALQSGNSQESVTEQDSKDSTYSLSSTLTLSKADYEKHKVYACEVTHQGLSSPVTKSFNRGEC
heavy 2: EVQLVETGGGLIQPGRSLRLSCAASGFTFSSYAMHWVRQAPGKGLEWVAVISYAGEVKYYADSVKGRFTISRDNSKNTLYLQMNSLRAEDTAVYYCARDPLPLHYYGMDVWGQGTTVTVSSASGQPKAAPSVTLFPPSSEELQANKATLVCLISDFYPGAVTVAWKADSSPVKAGVETTTPSKQSNNKYAASSYLSLTPEQWKSHRSYSCQVTHEGSTVEKTVAPTECSESKYGPPCPPCPAPEFLGGPSVFLFPPKPKDTLMISRTPEVTCVVVDVSQEDPEVQFNWYVDGVEVHNAKTKPREEQFNSTYRVVSVLTVLHQDWLNGKEYKCKVSNKGLPSSIEKTISKAKGQPREPQVCTLPPSQDELTKNQVSLSCAVKGFYPSDIAVEWESNGQPENNYKTTPPVLDSDGSFFLVSRLTVDKSRWQEGNVFSCSVMHEALHNHYTQKSLSLSPGK
light 2: QSALTQPRSASGNPGQRVTISCSGSSSNMGRRPVNWYQQIPGTAPKLLIYSQNQRPSGVPDRFSGSQSGTSASLTISGLQSEDEAEYFCAVWDDIGRVLQLGGGTQLAVLSSASTKGPSVFPLAPSSKSTSGGTAALGCLVKDYFPEPVTVSWNSGALTSGVHTFPAVLQSSGLYSLSSVVTVPSSSLGTQTYICNVNHKPSNTKVDKKVEPKSC
notes: also called CHA.7.518.1.H4(S241P)/CPA.9.086 BsAb; TIGIT-PVRIG Bispecific antibody

What was measured:
[1] = target: TIGIT on human CMV pp65-specific CD8+ T cells (human) (UniProt Q495A1); assay: flow cytometry on CMV pp65-specific CD8+ T cells, day 11, against an isotype control
[2] = target: T1, PVRIG on human CMV pp65-specific CD8+ T …; assay: cell-based or functional assay
[3] = target: T2, TIGIT on human CMV pp65-specific CD8+ T …; assay: cell-based or functional assay
[4] = target: T3, Human TIGIT-HIS monomer (Sino …); assay: SPR (ProteOn XPR 36, 22 C); BsAb captured on anti-human Fc, TIGIT-HIS monomer as analyte, 1:1 fit with kd held constant; rough estimate
Procedure: (§1) All experiments were performed using a ProteOn XPR 36 instrument at 22° C. while samples were kept at 4° C. during the assay. First, high density capture surfaces were prepared with a goat anti-human Fc polyclonal antibody (Thermo Fisher) immobilized over all vertical capture lanes and horizontal interspots on a GLC chip (Bio Rad) using standard amine coupling. […] Human TIGIT-HIS monomer was obtained from Sino Biological, while human PVRIG-HIS was prepared in-house. […] For each “single-shot kinetics” cycle on the ProteOn instrument, a different antibody was captured over two unique vertical capture lanes for two minutes. After switching the buffer flow of the ProteOn to the horizontal direction, capture surfaces were stabilized for approximately 15-20 minutes. […] Three replicates of each concentration series of antigen were injected over two independent surfaces of the captured bispecific antibody along with several cycles of buffer injections for double-referencing. […] The sensorgrams of TIGIT and PVRIG injected over the captured bispecific antibody were processed using a ProteOn version of Scrubber and were fit to a 1:1 kinetic binding model, including a term for mass transport.

[5] = target: T4, Human PVRIG-HIS (prepared in-house); assay: SPR (ProteOn XPR 36, 22 C); BsAb captured on anti-human Fc, PVRIG-HIS as analyte, 1:1 fit
Procedure: as §1

[6] = target: T3, Human TIGIT-HIS monomer (Sino …); assay: SPR (ProteOn XPR 36, 22 C); BsAb captured on anti-human Fc, TIGIT-HIS monomer as analyte; value fixed, not fitted, because too little dissociation was seen in 15 min
Procedure: as §1

[7] = target: T3, Human TIGIT-HIS monomer (Sino …); assay: SPR (ProteOn XPR 36, 22 C); BsAb captured on anti-human Fc, TIGIT-HIS monomer as analyte; kd/ka with kd held constant; rough estimate
Procedure: as §1

Molecule | MFIr (MFI of target antibody divided by MFI of control antibody) [1] [fold] | IFN-γ production EC50, donor 4 (both receptors blocked) [2] [pM] | IFN-γ production EC50, donor 72 (both receptors blocked) [2] [pM] | IFN-γ production EC50, donor 4 (both receptors blocked) [3] [pM] | IFN-γ production EC50, donor 72 (both receptors blocked) [3] [pM] | kon [4] [M⁻¹ s⁻¹] | Kd [5] [pM] | koff [5] [s⁻¹] | kon [5] [M⁻¹ s⁻¹] | koff [6] [s⁻¹] | Kd [7] [pM]
anti-TIGIT (clone: MBSA43)-allophycocyanin (APC; e-Bioscience) (antibody) | 4 |  |  |  |  |  |  |  |  |  | 
B1 |  | 360 | 530 | 360 | 530 | 3.9e+06 | 187 | 0.00024 | 1.3e+06 | ≤ 1e-05 | ≤ 2.6
